In patent US20210355220A1 (TIKCRO TECHNOLOGIES, published 2021):

Legend:
[1] = target: T1, Recombinant human CTLA-4-his (Sino Biologicals, 11159-H08H) (human, UniProt P16410 36-162); experiment: SPR (Biacore T100), antibody captured on anti-human chip, CTLA-4-his in solution
T1 construct: Bought protein; also called dimer hCTLA-4; not shown: his tag
Protocol: (§1) Recombinant human CTLA-4-his (Sino Biologicals, 11159-H08H) was added in a serial 2-fold dilution, starting at a concentration of 500nM. […] The measurement was corrected using the baseline channel and the protein-antibody interaction was measured by the change in surface resonance and quantified with Biacore T100 control software (version 2.0.4).

[2] = target: T2, human CTLA-4 expressed on cells (human, UniProt P16410 36-223); experiment: cell-based or functional assay
[3] = target: T1, Recombinant human CTLA-4-his (Sino …); experiment: SPR (Biacore T100), reference ipilimumab
Protocol: as §1

[4] = target: T2, human CTLA-4 expressed on cells; experiment: flow cytometry on HEK293-hCTLA-4 cells
Protocol: (§2) To test the binding of antibodies to CTLA-4 under more physiological conditions, the binding of CTLA-4 antibodies to cell-surface CTLA-4 was tested. […] The surface expression of hCTLA-4 in the obtained cell line was tested using a commercial anti-CTLA-4 antibody and compared to the parent cell line (HEK293 without transfection). […] The anti-CTLA-4 antibodies were incubated in serial dilution concentrations with the HEK293-hCTLA-4 cells for 1 hour on ice. Following a wash step, an anti-human antibody conjugated to ALEXA FLUOR® 647® was added for an additional hour. The cells were washed, and propidium iodide (PI) was added to exclude dead cells. The fluorescent signal was measured using FACS and analyzed. Dead cells were removed based on the PI signal. The population was gated based on forward and side scatter (FSC and SSC) parameters, and doublets were removed. The Median Fluorescent Intensity (MFI) of the appropriate channel was calculated for the live single cells from each group. The MFI was plotted versus antibody concentration in Prism software (V6.01) and kinetic parameters were obtained using a curve fit dose response function with four parameters. […] The lower EC₅₀ values indicate increased binding affinity to cell surface hCTLA-4.

[5] = target: T2, human CTLA-4 expressed on cells; experiment: flow cytometry on HEK293-hCTLA-4 cells, reference ipilimumab
Protocol: as §2

[6] = target: T3, Pig (Sus scrofa) CTLA-4 on HEK293 cells (Sus scrofa, UniProt Q9MYX7 36-223); experiment: flow cytometry on HEK293 cells transiently expressing pig CTLA-4
T3 construct: whole, on cells; also called pig CTLA-4
Protocol: (§3) Macaque (Macaca fascicularis), pig (Sus scrofa) and mouse (Mus musculus) CTLA-4 proteins were transiently expressed on the surface of HEK293 cells. […] Binding was measured using FACS and analyzed.

[7] = target: T4, Macaque (Macaca fascicularis) CTLA-4 on HEK293 cells (Macaca fascicularis, UniProt G7PL88 36-223); experiment: flow cytometry on HEK293 cells transiently expressing macaque CTLA-4, reference ipilimumab
T4 construct: whole, on cells; also called macaque CTLA-4
Protocol: as §3

[8] = target: T5, CTLA-4-his reduced with 100 mM DTT to its monomeric form (human, UniProt P16410 36-162); experiment: ELISA, plate coated with DTT-reduced CTLA-4-his (monomer), anti-human-HRP, OD450; the box beside the curves does not name the quantity, the value lies at the half-maximal point of the curve (OD450 0.2 to 1.4)
T5 construct: Same bought protein as the dimer, reduced with DTT before coating; also called monomer hCTLA-4; not shown: his tag
Protocol: (§4) hCTLA-4 can exist in monomer and dimer forms on the cell surface. […] The recombinant protein was incubated for 10 minutes with 100 mM DTT to reduce the protein to its monomeric form. […] The plates were coated overnight at 4° C., followed by a wash step and blocking with 20% milk for 1 hour at 37° C. […] The plate was washed and a secondary anti-human-HRP antibody (Jackson) was added at a 1:5000 dilution. A TMB solution was added, followed by stop solution and the OD at 450 nm was measured. Data was analyzed with Prism software.

[9] = target: T6, Mouse (Mus musculus) CTLA-4 on HEK293 cells (Mus musculus, UniProt P09793 36-223); experiment: flow cytometry on HEK293 cells transiently expressing mouse CTLA-4
T6 construct: whole, on cells; also called mouse CTLA-4
Protocol: as §3

[10] = target: T1, Recombinant human CTLA-4-his (Sino …); experiment: ELISA, plate coated with non-reduced CTLA-4-his (dimer), anti-human-HRP, OD450; the box beside the curves does not name the quantity, the value lies at the half-maximal point of the curve (OD450 0.2 to 1.4)
Protocol: as §4

[11] = target: T2, human CTLA-4 expressed on cells; experiment: flow cytometry, inhibition of CD86-mFC binding to HEK293-hCTLA-4 cells
Protocol: As part of their activity, CTLA-4 therapeutic antibodies block the interaction between CTLA-4 and its ligands, leaving the ligands free for CD28 binding. […] First, HEK293-hCTLA-4 cells were incubated with the tested antibodies in a serial dilution for 30 minutes. […] The fluorescence was measured and analyzed. The experiment was performed in triplicate and is representative of three biological repeats.

[12] = target: T4, Macaque (Macaca fascicularis) CTLA-4 on …; experiment: flow cytometry on HEK293 cells transiently expressing macaque CTLA-4, reference tremelimumab
Protocol: as §3

[13] = target: T2, human CTLA-4 expressed on cells; experiment: flow cytometry on HEK293-hCTLA-4 cells, reference tremelimumab
Protocol: as §2

[14] = target: T6, Mouse (Mus musculus) CTLA-4 on HEK293 …; experiment: flow cytometry on HEK293 cells transiently expressing mouse CTLA-4, reference ipilimumab
Protocol: as §3

[15] = target: T4, Macaque (Macaca fascicularis) CTLA-4 on …; experiment: flow cytometry on HEK293 cells transiently expressing macaque CTLA-4
Protocol: as §3

T4 sequence (G7PL88 entry or part of it): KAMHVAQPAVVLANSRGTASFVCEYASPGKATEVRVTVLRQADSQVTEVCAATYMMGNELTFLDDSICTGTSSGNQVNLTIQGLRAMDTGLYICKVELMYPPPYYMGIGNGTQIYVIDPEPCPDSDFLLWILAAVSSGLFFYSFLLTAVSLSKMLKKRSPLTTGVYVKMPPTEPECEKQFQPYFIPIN
T1 sequence (P16410 36-162 limits assumed): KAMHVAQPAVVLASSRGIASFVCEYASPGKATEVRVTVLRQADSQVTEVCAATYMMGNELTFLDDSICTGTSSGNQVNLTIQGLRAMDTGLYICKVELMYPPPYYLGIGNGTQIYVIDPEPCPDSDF
T2 sequence (P16410 36-223): as the sequence (G7PL88 entry or part of it) above, with N14S, T18I, M106L counted along it
T5 sequence (P16410 36-162 limits assumed): as the sequence (P16410 36-162 limits assumed) above
T3 sequence (Q9MYX7 36-223): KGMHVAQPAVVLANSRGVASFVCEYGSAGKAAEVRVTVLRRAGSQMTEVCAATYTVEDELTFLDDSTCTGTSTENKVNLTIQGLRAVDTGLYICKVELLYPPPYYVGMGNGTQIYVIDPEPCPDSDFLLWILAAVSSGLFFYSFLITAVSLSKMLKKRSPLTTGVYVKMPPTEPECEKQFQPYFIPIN

B1: Ab55h (antibody, V domains shown)
VH: QVQLQESGPGLVKPSETLSLTCAVSGYSISGDYYWGWIRQPPGKGLEWIGSIYHSGYTYYNPSLKSRVTISVDTSKNQFSLKLSSVTAADTAVYYCARDSGWYVIAFDYWGQGTLVTVSS
VL: EIVMTQSPATLSVSPGERATLSCRASQSVSSNLAWYQEKPGQAPRLLIYGASTRATGIPARFSGSGSGTEFTLTISSLQSEDFAVYYCQQYNNWPPLTFGGGTKVEIK
notes: Human form, compared with an hIgG1 isotype control
[1]
  Kd: 0.86 nM
  koff: 0.0006 s⁻¹
[2]
  SHP1 reporter IC50: 0.059 nM
  SHP1 reporter IC50, Ratio Ab55h:Ipilimumab: 4.5 fold
[3]
  Ratio Ipilimumab:Ab55h of Kd: 8.1 fold
  Ratio Ipilimumab:Ab55h of Koff: 1.3 fold
  Ratio Ipilimumab:Ab55h of Kon: 0.16 fold
[4]
  EC50: 0.24 nM
[5]
  Ratio Ipilimumab:Ab55h of EC50: 6.1 fold
[6]
  EC50: 0.12 nM
[7]
  Ratio Ipilimumab:Ab55h of EC50: 2.6 fold
[8]
  EC50: 0.002 nM
[9]
  EC50: 34 nM
[10]
  EC50: 0.008 nM
[11]
  IC50: 1.5 nM
[12]
  Ratio Tremelimumab:Ab55h of EC50: 1.7 fold
[13]
  Ratio Tremelimumab:Ab55h of EC50: 7.5 fold
[14]
  Ratio Ipilimumab:Ab55h of EC50: 0.18 fold
[15]
  EC50: 0.3 nM
